# Patent US20200231673A1 (Hoffmann-La Roche, published 2020)
# B1: Her2 TCB: anti-Her2/anti-CD3 '2+1 IgG CrossFab, inverted' molecule with charge modifications (bispecific antibody)
# light: EVQLLESGGGLVQPGGSLRLSCAASGFTFSTYAMNWVRQAPGKGLEWVSRIRSKYNNYATYYADSVKGRFTISRDDSKNTLYLQMNSLRAEDTAVYYCVRHGNFGNSYVSWFAYWGQGTLVTVSSASVAAPSVFIFPPSDEQLKSGTASVVCLLNNFYPREAKVQWKVDNALQSGNSQESVTEQDSKDSTYSLSSTLTLSKADYEKHKVYACEVTHQGLSSPVTKSFNRGEC
# chain 1: not shown
# chain 2: not shown
# chain 3: not shown
# B2: Her3 TCB: anti-Her3/anti-CD3 '2+1 IgG CrossFab' molecule with charge modifications (bispecific antibody)
# light: EVQLLESGGGLVQPGGSLRLSCAASGFTFSTYAMNWVRQAPGKGLEWVSRIRSKYNNYATYYADSVKGRFTISRDDSKNTLYLQMNSLRAEDTAVYYCVRHGNFGNSYVSWFAYWGQGTLVTVSSASVAAPSVFIFPPSDEQLKSGTASVVCLLNNFYPREAKVQWKVDNALQSGNSQESVTEQDSKDSTYSLSSTLTLSKADYEKHKVYACEVTHQGLSSPVTKSFNRGEC
# chain 1: not shown
# chain 2: QVQLVQSGAEVKKPGASVKVSCKASGYTFRSSYISWVRQAPGQGLEWMGWIYAGTGSPSYNQKLQGRVTMTTDTSTSTAYMELRSLRSDDTAVYYCARHRDYYSNSLTYWGQGTLVTVSSASTKGPSVFPLAPSSKSTSGGTAALGCLVEDYFPEPVTVSWNSGALTSGVHTFPAVLQSSGLYSLSSVVTVPSSSLGTQTYICNVNHKPSNTKVDEKVEPKSCDKTHTCPPCPAPEAAGGPSVFLFPPKPKDTLMISRTPEVTCVVVDVSHEDPEVKFNWYVDGVEVHNAKTKPREEQYNSTYRVVSVLTVLHQDWLNGKEYKCKVSNKALGAPIEKTISKAKGQPREPQVCTLPPSRDELTKNQVSLSCAVKGFYPSDIAVEWESNGQPENNYKTTPPVLDSDGSFFLVSKLTVDKSRWQQGNVFSCSVMHEALHNHYTQKSLSLSP
# chain 3: not shown
# Columns and labels:
# [1] = biological target: human CD3 (particularly the epsilon subunit of CD3) (human, UniProt P07766 23-207); experiment: cell-based or functional assay
# human Her3 = human Her3 (human, UniProt P21860 20-1342); experiment: cell-based or functional assay
Binder,"EC50 of activation of Jurkat-NFAT reporter cells via CD3 after 5 h (luminescence, KPL4 tumor cells) [1] [pM]","EC50 of tumor cell lysis (LDH release), KPL4 cells, 24 h (human Her3) [pM]","EC50 of tumor cell lysis (LDH release), KPL4 cells, 48 h (human Her3) [pM]","EC50 of tumor cell lysis determined by Caspase 3/7 activity (luminescence), KPL-4-Caspase-3/7 GloSensor cells, 6.5 h (human Her3) [pM]"
B1,34.4,–,–,–
B2,22,2.54,0.53,0.7
